# Reference: publication PMC5498155 (Bioorganic & medicinal chemistry, 2016)
# Entries after “also recorded” stand apart in the source; their conditions may differ.
# Target: CXCR4 (Homo sapiens, UniProt P61073)
# Experiment: Competitive CXCR4 binding assay
# Conditions: CHO cells stably transfected with CXCR4; 12G5 antibody competition
# Chain of CXCR4 (P61073 whole entry): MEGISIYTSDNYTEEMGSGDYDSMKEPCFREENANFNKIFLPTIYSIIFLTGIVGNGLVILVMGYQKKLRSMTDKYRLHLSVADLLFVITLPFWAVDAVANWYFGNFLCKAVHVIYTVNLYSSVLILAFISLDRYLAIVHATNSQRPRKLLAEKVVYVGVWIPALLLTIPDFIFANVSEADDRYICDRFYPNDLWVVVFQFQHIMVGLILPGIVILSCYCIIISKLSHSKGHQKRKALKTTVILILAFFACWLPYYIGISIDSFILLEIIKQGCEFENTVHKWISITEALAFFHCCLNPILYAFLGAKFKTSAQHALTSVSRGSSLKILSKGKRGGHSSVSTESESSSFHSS
substance,measurement,value
SDF-1α1–8 (KPVSLSYR) [ligand 19],CXCR4 binding activity (in words),very low CXCR4 binding affinity; also recorded: No binding
